The assay deals with human IL-17RA extracellular domain (human), Q96F46. Nature of the assay: SPR. The note with it: ligand; chains chain; biotin on the Avi-tag (E. coli BirA), for the SPR measurements only; remark: other sources report otherwise. A general note: SPR reads the build-up and loss of mass on a sensor chip optically.

B1: human IL-17F homodimer, Q96PD4 31-163 (protein)
chain: RKIPKVGHTFFQKPESCPPVPGGSMKLDIGIINENQRVSMSRNIESRSTSPWNYTVTWDPNRYPSEVVQAQCRNLGCINAQGKEDISMNSVPIQQETLVVRRKHQGCSVSFQLEKVLVTVGCTCVTPVIHHVQ
With B1, the Kd (in general, a measure of binding affinity in units of concentration) turned out to be 0.136 µM.

These data come from paper PMC5566378.
